# Reference: US7053264B2, “Nuclear reprogramming using IWSI and related chromatin remodeling ATPases” (Sangamo Biosciences, Inc., priority 2000, dated 2006)
# Positions count from the first letter of the chain named.
# B1: rISWI: recombinant Drosophila ISWI produced in E. coli (protein, UniProt Q24368 1-1027, looked up)
# Chromatin-remodeling complex …: MSKTDTAAVEATEENSNETTSDAATSSSGEKEAEFDNKIEADRSRRFDFLLKQTEIFTHFMTNSAKSPTKPKGRPKKIKDKDKEKDVADHRHRKTEQEEDEELLAEDSATKEIFRFDASPAYIKSGEMRDYQIRGLNWMISLYENGINGILADEMGLGKTLQTISLLGYLKHFKNQAGPHIVIVPKSTLQNWVNEFKKWCPSLRAVCLIGDQDTRNTFIRDVLMPGEWDVCVTSYEMCIREKSVFKKFNWRYLVIDEAHRIKNEKSKLSEILREFKTANRLLITGTPLQNNLHELWALLNFLLPDVFNSSEDFDEWFNTNTCLGDDALITRLHAVLKPFLLRRLKAEVEKRLKPKKEMKIFVGLSKMQRDWYTKVLLKDIDVVNGAGKVEKMRLQNILMQLRKCTNHPYLFDGAEPGPPYTTDTHLVYNSGKMAILDKLLPKLQEQGSRVLIFSQMTRMLDILEDYCHWRNYNYCRLDGQTPHEDRNRQIQEFNMDNSAKFLFMLSTRAGGLGINLATADVVIIYDSDWNPQMDLQAMDRAHRIGQKKQVRVFRLITESTVEEKIVERAEVKLRLDKMVIQGGRLVDNRSNQLNKDEMLNIIRFGANQVFSSKETDITDEDIDVILERGEAKTAEQKAALDSLGESSLRTFTMDTNGEAGTSSVYQFEGEDWREKQKLNALGNWIEPPKRERKANYAVDAYFREALRVSEPKAPKAPRPPKQPIVQDFQFFPPRLFELLDQEIYYFRKTVGYKVPKNTELGSDATKVQREEQRKIDEAEPLTEEEIQEKENLLSQGFTAWTKRDFNQFIKANEKYGRDDIDNIAKDVEGKTPEEVIEYNAVFWERCTELQDIERIMGQIERGEGKIQRRLSIKKALDQKMSRYRAPFHQLRLQYGNNKGKNYTEIEDRFLVCMLHKLGFDKENVYEELRAAIRASPQFRFDWFIKSRTALELQRRCNTLITLIERENIELEEKERAEKKKKAPKGSVSAGSGSASSNTPAPAPQPKASQKRKSEVVATSSNSKKKKK
# B2: mutant of rISWI: rISWI in which lysine 159 in the adenine nucleotide binding domain was replaced with arginine; negative control (protein, UniProt Q24368 1-1027, looked up, variant K159R)
# Chromatin-remodeling complex …: B1 Chromatin-remodeling complex … with K159R
# What was measured:
# [1] = tested on: nuclei of Xenopus XTC-2 cells; test: Biochemical complementation assay: release of TBP from nuclei by purified proteins combined with SP Sepharose flow through (FT); conditions: for reconstitution of release of TBP from nuclei: combined with SP Sepharose FT in the presence of ERS, FIG. 4D
# Protocol: (§1) “Extract” refers to unfractionated egg extract. […] The gel was stained with Coomassie Blue. FIG. 4C depicts ATPase activity of ISWI-D and rISWI. ATPase activity was determined in the presence of buffer (−), DNA (D), or nucleosomes (N). The arrowhead indicates the free phosphate generated by ATP hydrolysis. FIG. 4D depicts biochemical complementation assays for activities capable of removing TBP from the nucleus. Egg extract (Ext), SP Sepharose flow through (FT), and FT complemented with various purified proteins at indicated concentrations were compared for remodeling activity by monitoring residual TBP in the nuclear pellet after incubation of nuclei in an egg extract. All lanes included ERS except lanes 7 and 8, which contained apyrase. Np indicates nucleoplasmin.
# (§2) The ISWI-D complex was purified from Xenopus egg extract (FIG. 4A), and shown to contain two subunits: p195 and ISWI (FIG. 4B). For the purification, egg extract was fractionated through BioRex 70 (Bio-Rad, Hercules, Calif.) and MonoQ (Amersham Pharmacia, Piscataway, N.J.) essentially as described in Wade et al. (1998) Curr Biol 8:843–846. The MonoQ ISWI-D peak (eluting at approximately 0.45 M NaCl) was further purified by gradient elution on MonoS (linear gradient from 0.1 to 0.5 M NaCl in Buffer A) as described in Wade et al., supra. ISWI-D was eluted at approximately 0.3 M NaCl. Drosophila rISWI was produced in E. coli and purified by IMPACT T7 system (New England Biolabs, Beverly, Mass.) and Superdex 200 gel filtration column (Amersham Pharmacia). ATPase activity was tested as described in Corona et al, supra.
# Either ISWI-D complex or rISWI were essential for release of TBP from nuclei. The endogenous activity in the extract responsible for the release of TBP from chromatin was depleted by applying the extract to SP Sepharose, and restored by combining the SP Sepharaose flow through (FT) and the 0.5 M NaCl eluate from BioRex 70 that contained ISWI (FIG. 4D, lanes 2 and 3). FT was prepared from SP Sepharose (Amersham Pharmacia) by equilibrating the resin with Buffer A and briefly centrifuging to deplete the buffer. The egg extract was incubated with the equilibrated resin for 30 minutes in a cold room and briefly centrifuged to collect FT. […] Release of TBP from nuclei by ISWI plus FT was also confirmed by immunofluorescence.
# Three other proteins known to modify protein-DNA interactions (TAF172, the Mi-2 complex and nucleoplasmin) were also tested in this biochemical complementation assay. Recombinant human TAF172 was prepared in a baculovirus expression system (see Chicca et al. (1998) Mol Cell Biol 18:1701–1710), while the Mi-2 complex and nucleoplasmin were isolated from Xenopus egg extracts. TAF 172, the human homologue of yeast Mot1, also belongs to the SWI2/SNF2 superfamily and removes TBP from DNA in vitro (Auble et al. (1994) Genes Dev 8:1920–1934; Chicca et al., supra). The Xenopus Mi-2 complex contains Mi-2, also a member of the SWI2/SNF2 superfamily, in addition to five other subunits and remodels chromatin (Wade et al (1998) Curr Biol 8:843–846; Guschin et al. (2000) Biochem 39:5238–5245). Nucleoplasmin remodels sperm chromatin upon fertilization (Dimitrov et al., supra; Philpott et al. (2000) Cell 69:759767). […] Higher concentrations of these proteins were also tested, with similar results.
# [2] = tested on: nuclei of Xenopus XTC-2 cells; test: Nuclear remodeling assay: permeabilized somatic nuclei incubated in Xenopus egg S phase extract, TBP in nuclear pellet by immunoblot; assay type: biochemical; conditions: agent added to nuclear remodeling reaction in egg extract; immunoblot FIG. 1A
# Protocol: To simplify nuclear remodeling assays by eliminating nuclear transport steps, both the plasma membrane and nuclear envelope of Xenopus XTC-2 cells (henceforth called nuclei) were permeabilized with a detergent, essentially as described in Adam et al. (1992) Methods Enzymol. […] Xenopus XTC-2 cells were permeabilized with 30 μg/ml digitonin for three minutes using the LL-Bsa method (Gurdon (1976) J. Embryol. Exp. Morphol. 36:5235407) replacing lysolecithin (which caused tight aggregation of nuclei) by digitonin. […] The permeability of the nuclear envelope was monitored by the passive entry of fluorescence-labeled immunoglobulin G (150k Da) into the nuclei (Newmeyer et al. (1986) J Cell Biol 103:2091–2102). […]
# After incubation for two hours at room temperature 100 μl of Buffer B (10 mM HEPES pH 7.8, 75 mM KCl, 4 mM magnesium chloride, 250 mM sucrose, 0.5 mM spermidine trihydrochloride, 0.15 mM spermine tetrahydrochloride, 1 mM dithiothreitol, 10 mM β-glycerophosphate, 1 μg/ml leupeptin, 2 μg/ml pepstatin A, 100 μM 4-(2-aminoethyl)-benzenesulfonyl fluoride, AEBSF) was added and the reaction mix was centrifuged at 15,000× g for 10 min. The pellet, called remodeled nuclei, was analyzed by immunoblotting using SuperSignal West Dura (Pierce, Rockford, Ill.) as a substrate of horseradish peroxidase.
# [3] = tested on: nuclear matrix; test: Release of TBP from purified nuclear matrix, immunoblot; assay type: biochemical, Xenopus; conditions: presence of ERS; ISWI-D or rISWI added to the FT fraction; FIG. 5
# Protocol: Analysis of histone H2B is shown as a control. Nuclear matrix was prepared as described in the Examples, and nuclear matrix proteins were separated by gel electorphoresis. Each lane contained matrix from 4×10^5 nuclei. The gel was blotted, and the blots were analyzed with antibodies to TBP or H2B. Nuclei were incubated with egg extract (lanes 2 and 3) or various combinations of proteins and protein fractions (lanes 4–8) prior to preparation of nuclear matrix. Analysis of a preparation of nuclear matrix from nuclei that were not incubated with extract or proteins is shown in lane 1. Presence or absence of an ERS in the incubation is indicated by “+” and “−,” respectively.
# To understand the mechanism of the release of TBP further, nuclear matrix was prepared from the nuclei that had not been incubated in the egg extract, by using 0.5% Triton X-100, DNase I, 250 mM ammonium sulfate, and 2M NaCl. The nuclear matrix was prepared essentially as described D. L. Spector and D. Goldman, L. L. A, in Cells, A Laboratory Manual. (Cold Spring Harbor Laboratory Press, New York, 1997) pp. 44.1–44.8. […]
# The purified nuclear matrix was incubated in the egg extract and its composition was analyzed by immunoblotting.
# [4] = tested on: nucleosomes; test: ATPase activity in the presence of buffer, DNA or nucleosomes; assay type: biochemical; conditions: FIG. 4C
# Protocol: as §1
# as §2, with “Drosophila rISWI was produced in E. coli and purified by IMPACT T7 system (New England Biolabs, Beverly, Mass.) and Superdex 200 gel filtration column (Amersham Pharmacia). ATPase activity was tested as described in Corona et al, supra.” left out
Molecule,reconstitution of release of TBP from nuclei [1],effect on exclusion (loss) of TBP from nuclei in egg extract [2],also measured
"TAF172: recombinant human TAF172, homologue of yeast Mot1, prepared in a baculovirus expression system",None of these proteins proved capable of reconstituting TBP removal activity,,
aphidicholin,,neither aphidicholin nor arabinosylcytosine (both inhibitors of DNA replication) inhibited the loss of TBP,
apyrase,,exclusion was inhibited,
nucleoplasmin: molecular chaperone isolated from Xenopus egg extracts; remodels sperm chromatin,None of these proteins proved capable of reconstituting TBP removal activity,,
B1,competent to reconstitute release of TBP from nuclei,,release of TBP from nuclei in combination with nucleoplasmin ([1]; nucleoplasmin substituted for the FT fraction): incapable of releasing TBP from nuclei; release of TBP from nuclei in the absence of FT ([1]; without FT fraction): Neither the ISWI-D complex nor rISWI could release TBP from nuclei; release of TBP from the nuclear matrix [3]: resulted in release of TBP
B2,not competent to reconstitute release of TBP from nuclei,,nucleosomal ATPase activity [4]: lacked nucleosomal ATPase activity
